The supplement of paper PMC9170038

Tested on: K4 kissing-loop RNA reporter
Test: apparent KD of K4 kissing-loop reporter; higher = weaker reporter binding
Settings: Eterna round: R107
Procedure: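 RNA-MaP round R107: designed RNA switches with theophylline, tryptophan, arginine or FMN aptamers are transcribed on-chip within common flanks. They are titrated with a labelled K4 kissing-loop RNA reporter in RNA-MaP buffer (100 mM Tris pH 7.5, 80 mM KCl, 4 mM MgCl2), without ligand or with the indicated ligand. Median apparent KD per design.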

[1] = input ligand: theophylline 20 uM
[2] = input ligand: tryptophan 2.4 mM
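Further: bound reporter read as fluorescence of individual clusters on recovered sequencing chips by microscopy, with normalized cluster intensities fitted with a binding model.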

Sequence	apparent KD of K4 kissing-loop reporter (input ligand: FMN 200 uM)	apparent KD of K4 kissing-loop reporter (input ligand: arginine 13.2 mM)	apparent KD of K4 kissing-loop reporter (input ligand: none)	apparent KD of K4 kissing-loop reporter [1]	apparent KD of K4 kissing-loop reporter [2]
GGGUGGCAGACGGCCGCCACUCUUAGCAGCCAGUGAGUGAUGUUCGUGGCGGAGUGAUGUUCCUAGAGGACCGGGUUUGUUGUUC [Same State Tryptophan B GF 20]	413 nM	259 nM	478 nM	412 nM	318 nM
GGGUGGCAGGCGGCCGCCACUCUUAGCAGCCAGUGAGUGAUGUUCGUGGCGGAAGAAUGUUCGUAGAGGACCGGGUUUGUUGUUC [Same State Tryptophan B GF 21]	262 nM	180 nM	257 nM	254 nM	216 nM
GGUAGCAUGGCGGCCGCCACUCGGACGACAUAGCACAUGUCGACCAGUGAUGUUGGUUCAAACACGAGGACCGGGCCAUGCUACC	724 nM	715 nM	798 nM	629 nM	135 nM
GGUAGCAUGGCGGCCGCCACUUAUGUUCACAUAGUGAUGUUAUGUUCACAUUUAUGGCCCUGCUUAAGGACCGGGCCAUGCUACC	118 nM	90.3 nM	105 nM	82.1 nM	272 nM
GGUAGCAUGGCGGCCGCCACUUUGCACCUUUUCUUUUCUUUUGGUGCUUCACGAGUGAUGUUCGUAAGGACCGGGCCAUGCUACC	259 nM	217 nM	261 nM	213 nM	195 nM
GGUCCGCACAUGAGUGAUGUUCAUGUAGAUACCAGUAUCGAAAGAUACCCUUGGCAGCUACGGCACGGACCGGCGGGAAACCGCC	213 nM	200 nM	194 nM	291 nM	184 nM
GGUCCGGGCUCGGCCGCCACUCCCUCCUGCCGCAAGGUGGGAUACCGAGUGAUGUUCGGUUGGAGGAGGACCGGGAGCCCGGACC [#2 Exclusion - Tryptophan B Attempt #14 (HarryS)]	115 nM	124 nM	121 nM	133 nM	118 nM
GGUGGACUAGUCGAGUGAUGUUCGAGGCAUCGAGGACCGGUACGGCCGCCACUCGCAAAUCUACCGUGCGUUAACCACCAAAGUG [theeternabot_sameState_KL_Trp_A_37]	295 nM	152 nM	304 nM	317 nM	344 nM
GGUGUUGUUUGUGCUGUUUUCCUCGUUUCUCGAGGACCGGUACGGCCGCCACUCGAGUGAUGUUUGGGUAGCGAUCCUUGUUAGU [Bdazzled - #6 Exc. Tryptophan A]	335 nM	215 nM	313 nM	272 nM	383 nM
GGUUCGAGUGAUGUUCGGGUCGAUUGGGAAGGAGCGCCCGGAAGGGCAGGUAGGUCGCCCGGGCCGCGCGGGAAACCGCGCGUCC [#2 Same State - Arginine A Attempt #7 (HarryS)]	216 nM	121 nM	175 nM	147 nM	144 nM
GGUUCUGGAAUCGAGUGAUGUUCGGUGUUGCAGGAUAUAGAGAGAUCUAGAAGGGCAGUUUGUAUUUUAUUGAGUGAUUUUCUUU [Last Minute #3]	84 nM	83.1 nM	106 nM	106 nM	93.4 nM
GGUUGAAGUACCCGGAGUGAUGUUCCGGAUACCAGCAAACCAACUUGCCCUUGGCAGCCGUAUAGCGUCCGGUGGACCGAGCAUA [Soriesreve]	98.5 nM	70.3 nM	77.4 nM	76.2 nM	78.7 nM
GGUUUAUAGGAGGAUACCAGUACGGAUAAAGUACGUUAAUAGUAGAGUGAUGUUCUAAAGUACCCUUGGCAGCUUAGAUUAAGUU [ExTheophylB.J]	72 nM	142 nM	106 nM	110 nM	64.4 nM
GUACGCUCUCGAGUGAUGUUCGGUAAUCCUUAGGAUAUCGCUUUUGCGAGAAGGAAGGGAAUGAGGAAACUCGUUCUGAGUGUAC [FMN A 21]	523 nM	299 nM	366 nM	481 nM	743 nM
GUACGCUUCCGAGUGAUGUUCGGUAAUAGUUAGGAUAUCGUUUUUUCGAGAAGGAACUGAAUGAGGAAACUCGUUCGAAGUGUAC [FMN A 16]	395 nM	266 nM	380 nM	424 nM	266 nM
GUAGACAGGCUGCGAACCUAGUCUACAGACUAGGAUAUCAGGAAACUGAGAAGGAGUCUAGUUGCAGUGAUGUUGCAAGAAUAAU [KL-SSFMN-A25]	81.3 nM	125 nM	94.6 nM	135 nM	84.7 nM
GUAGGAUGAGGAGGAGGAUGAAUUACUGAAGGAGCGCAUAUUUUUGCAGGUAGGUCGCGGUAAAGAAGUAUAGUGAUGUUAUAUA [SSArgA.J]	410 nM	434 nM	381 nM	624 nM	304 nM
GUAGUUGCGCAAGGAUAUUAGUUAAGUGAUGUUUGAUUCGGUAUUGUUUACGUACACUGACCCGAUUAAGAAGGUGCGGGCAGCG [theeternabot_exclusion_KL_FMN_B_50]	604 nM	582 nM	580 nM	343 nM	369 nM
GUAUGUGGAAACACGUACUUGUAUCCUAAGCAGGAUAUGCGGAAACGCAGAAGGGCUACCAGCGAGUUUAUCCAGUGAUGUUGGA [Ex FMN A 12]	289 nM	235 nM	269 nM	264 nM	288 nM
GUCCAACCUGGAGGAUAUCUGCUGUCCAGUGAUGUUGGACACUUUAGUAAAGGCCGGGUAGCCCGCAGAGAAGGCCGGAGUUGCC [Arceer]	310 nM	328 nM	375 nM	464 nM	327 nM
GUCCCGAGUGAUGUUCGGGUCGUUUGGGAAGGAGCGCCCGGAAGGGCAGGUAGGUCGCCCGGACCGUGCAGGUAACUGUGCGGCC [#2 Same State - Arginine A Attempt #18 (HarryS)]	176 nM	146 nM	181 nM	196 nM	178 nM
GUGCAGUGAUGUUGCACGAGGAAAGACGAUACCAGCCGUAAAUAAGGCCCUUGGCAGCGUGGACUAGCAUAAAGUAUGCUAGCCU [Isenaonle]	118 nM	104 nM	123 nM	116 nM	96.5 nM

Sequence	apparent KD of K4 kissing-loop reporter (input ligand: FMN 200 uM)	apparent KD of K4 kissing-loop reporter (input ligand: arginine 13.2 mM)	apparent KD of K4 kissing-loop reporter (input ligand: none)	apparent KD of K4 kissing-loop reporter [1]	apparent KD of K4 kissing-loop reporter [2]
GUGCGCGCGGCGGCCGCCACUCGCAUGAGAGUGAUGUUCUUGCCCGGGCCGCAAGGCCCGGGUGUGAGGACCGGGCCGGGCUGCG [#2 Same State - Tryptophan B Attempt #26 (HarryS)]	115 nM	1.09 nM	180 nM	0.148 nM	425 nM
GUUACUUCAGAAGGAUAUUAGUAAACAACACGGUAGUGAUGUUACCGUUAUCAAGCCCGGCUUCACUAAGAAGGUCUCCACCGCG [theeternabot_sameState_KL_FMN_B_23]	52 nM	67.9 nM	52.9 nM	70 nM	54.1 nM
GUUCGGAUGCGGGAUACCAGCGUACCGAGCAAGCUUCGGGUAGUGAUGUUAUCUGAAUUACGCCCUUGGCAGCCCGCAUCCGGGC [clock_plus]	265 nM	234 nM	285 nM	212 nM	256 nM
GUUUGGCGGGCGGCCGCCACUCGGACGAGUCGCAGUGAUGUUGUGGUUUGCCAGUCGUCUUCAUCGAGGACCGGGUUUGUCGGGC [Exclusion Tryptophan B GF 19]	495 nM	380 nM	600 nM	571 nM	496 nM
UAAACCAAAUUACGUCACCUUGUCCAAUCUAAGGAUAUGUGAUUCCACAGAAGGUAGCCACGGGAGUGAUGUUCGCGUUAAGGCG [theeternabot_exclusion_KL_FMN_A_31]	475 nM	388 nM	465 nM	460 nM	419 nM
UAACUUGCAGUGAUGUUGCAAGAACUGGAUACCAGCAUGGAAACAUGCCCUUGGCAGCCAGAAGCUGGCUGACUGCAAGGUCAGC [Design4]	148 nM	142 nM	124 nM	136 nM	123 nM
UAAGAGGACCACUGCAAGAGUCCUCGAAUACGAGGACCGGUACGGCCGCCACUCGAUAACUUGCAGUGAUGUUGCAAGUAAGAAU [(T)''-(K)'-(T)'-(T1)-(T2)-(K1)-(K2)_Design1]	124 nM	129 nM	119 nM	144 nM	84.4 nM
UAAUAUAAUCUGUCGUAAACAAUAAUUAGUCAGGAUAUCGUAUAUUCGAGAAGGGACACUAUCUAGUGAUGUUAGAUAUUUCGUU [JR_SSFMNA_Sub026]	45.5 nM	76.4 nM	53.4 nM	67.5 nM	47.6 nM
UAAUAUAAUCUGUCGUUUACAAUAUUUAGUCAGGAUAUCGUAUAUUCGAGAAGGGACACUAUCUAGUGAUGUUAGAUAUUUCGUU [JR_ExcFMNA_Sub015]	51 nM	81.4 nM	59.6 nM	76.6 nM	54.6 nM
UAAUCCUAGUGAUAAUUAUCAAGUGGUGGGCGAGGACCGGUACGGCCGCCACUCGAAUAUGCAGUGAUGUUGUAAUCCGGAUAAU [Exclusion - Tryptophan A (Freestyle 7)]	639 nM	636 nM	534 nM	715 nM	441 nM
UAAUGCAUGACGGCCGCCACUAGUACUGGAGUGAUGUUGUGGUACGGCGGCAGUUUAGGGUGGACUAGGACCGGGUCAUGCAUAU [KL-XTryp-B10 #analogue]	461 nM	314 nM	339 nM	305 nM	356 nM
UAGAGAUCGAGAAGGAGCGAGAAAGCUAGUACAUAUGUACUAGCAAAGCAGUGAUGUUGCACUCAGGUAGGUCGCUCGAUCUCAU [AK1.1 SS Arginine B]	337 nM	267 nM	366 nM	432 nM	305 nM
UAGAGCAUCGCAGGAUAUCCUGCUUAACGUUGGAUUCCAGUGAUGUUGGAAAGCCGGCCUAGGGUAGGAGAAGGGCGGAUUUGAA [Edvean]	171 nM	151 nM	215 nM	322 nM	149 nM
UAGUAGCUCUCGGCCGCCACUCCUCAGUGAUGUUGAGAUAUUAAGAGCCAAUUGGCUCAUAUAAAGAGGACCGGGAGAGCUACAU [AK4.2 SS Tryptophan B]	355 nM	339 nM	365 nM	350 nM	126 nM
UAGUAGUAGCGAGGAUAUGCAAUAGGCGAGUGAUGUUCGCCAGGCGGGCGUCGCAUAUAAGAAAGAGCAGAAGGCGCUAGGUAGA [SameState - FMN B / A]	814 nM	303 nM	329 nM	397 nM	399 nM
UAGUCGCUAGUUAGCGACAACGGGUCAGAUACCAGACUAGCGAUAGUCCCUUGGCAGCUGAAGUUCAGUGAUGUUGAACGGAUUA [Theo A SS t10]	192 nM	296 nM	265 nM	230 nM	207 nM
UAGUCUCGAGUCUGAGAUUACGGGUCAGAUACCAGACUAGAGAUAGUCCCUUGGCAGCUGAAGUUCAGUGAUGUUGAACGGAUUA [Theo B SS t10a]	501 nM	394 nM	441 nM	510 nM	377 nM
UAUCGAGUGAUGUUCGAUGUAGUCCAUUCAGAGGAUAUAGGAUUGACUAGAAGGCUGAAACCUUCUUCGAGUGAUGUUCGAGGAU [Same State FMN A GF4]	92.5 nM	39.6 nM	58.9 nM	45.2 nM	47.4 nM
UAUCGAGUGAUGUUCGAUGUAGUUCAUUCAGAGGAUAUAGGAUGGGCUAGAAGGCUGAAAAGUGCUUCGAGUGAUGUUCGAAGAU [Exclusion FMN A GF 6]	64.6 nM	40.9 nM	53.7 nM	40.9 nM	44.7 nM
UAUGAAUGUGGAGGAUAUUGAUUGAAUCUUGGUCUGGAGUGAUGUUCCGGGAAGCCUUGGAUUCAUCGAGAAGGCCAUGGAUAGU [#03 K4 FMN B Same State]	111 nM	111 nM	118 nM	109 nM	95.9 nM
UAUUGUACAGGGAAAUUGAUAAUAGACUUACGAGGACCGGUACGGCCGCCACUCGAUAGUCGAGUGAUGUUCGAAUGCUAUUGAU [Attempt 1]	218 nM	210 nM	211 nM	314 nM	132 nM
